Experiment [1] concerns the target T1, purified biotin-tagged human CD36 (human, UniProt P16671 30-439, limits assumed, biotin tag, site not stated). As to the kind of experiment: AlphaScreen competition; competitor FA6-152 on acceptor beads. (In general: Bead proximity is the source of the signal in Alpha formats.)
Experiment [2] deals with T2, human CD36 (on HEK 293 or SCC25 cells) (human, UniProt P16671 2-472). In words: cell-based or functional assay.
Experiment [3] has as its target T1, purified biotin-tagged human CD36. As to the kind of experiment: AlphaScreen competition; competitor 1G04 on acceptor beads.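 Note: streptavidin donor beads excited at 680 nm release singlet oxygen, and the light signal needs a nearby acceptor bead, with 30 min donor-bead incubation at 25 °C in the dark.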
Experiment [4] deals with T3, nonhuman primate CD36 (on HEK 293 cells) (cynomolgus monkey / rhesus macaque, UniProt P16671 2-472 (human entry)).
T3 construct: also called non-human primate CD36 (cynomolgus)
T3 sequence (P16671 other isoform, or with tags, fused parts or gaps limits assumed): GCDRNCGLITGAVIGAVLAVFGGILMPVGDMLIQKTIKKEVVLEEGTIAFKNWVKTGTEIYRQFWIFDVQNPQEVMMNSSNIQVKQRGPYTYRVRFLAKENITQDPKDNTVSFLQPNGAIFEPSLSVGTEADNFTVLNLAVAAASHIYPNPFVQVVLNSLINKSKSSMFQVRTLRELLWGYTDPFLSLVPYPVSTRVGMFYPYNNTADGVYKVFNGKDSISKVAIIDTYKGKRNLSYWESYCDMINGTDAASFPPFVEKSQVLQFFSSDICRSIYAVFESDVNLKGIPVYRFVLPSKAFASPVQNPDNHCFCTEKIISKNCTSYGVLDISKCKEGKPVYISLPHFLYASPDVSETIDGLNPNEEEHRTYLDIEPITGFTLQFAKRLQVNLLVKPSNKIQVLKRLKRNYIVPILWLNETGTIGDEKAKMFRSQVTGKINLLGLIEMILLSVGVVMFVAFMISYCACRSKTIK
In words: FACS, HEK 293 cells transiently overexpressing CD36.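 Note: antibody binding to transfected cells detected by flow cytometry with a fluorescent anti-human secondary antibody, EC50 from a four-parameter sigmoidal fit of mean fluorescence intensity.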 In general terms: Flow cytometry measures light scatter and fluorescence of single cells or particles in a stream.
Experimental: (§1) After transiently transfecting the HEK 293 cells with a CD36 expression construct, cells were treated with three-fold serial dilution of each candidate antibody (10 dilutions starting at 500 nM). […] After incubation with the cells, an anti-human fluorescently labelled antibody was added to the cell media, allowed to incubate further, and the unbound antibody was washed off of the cells. Subsequently, the cells were subjected to FACS analysis to determine antibody binding to the cells. The results were fitted to a sigmoidal titration curve. Using a nonlinear regression model, the EC₅₀ values for each antibody were calculated from the GeoMFI and MFI values using the log(agonist) versus response (four parameters) fitting on the data transformed according to X=Log[X] in GraphPad PRISM.

In experiment [5] the target is T2, human CD36 (on HEK 293 or SCC25 cells). The description is as above.
Experimental: as §1
Experiment [6] deals with T1, purified biotin-tagged human CD36. In words: AlphaScreen competition; competitor 11G04 on acceptor beads.
Experimental: This was done using the AlphaScreen® bead-based microplate assay. […] AlphaLISA® Streptavidin Donor Beads were then added and the mix incubated for 30 min at 25° C. in the dark. The donor bead contains a photosensitizer, which upon excitation by light at 680 nm, converts oxygen (O₂) into an excited form, singlet oxygen. Singlet oxygen molecules have a reduced lifetime (4 microseconds half-life) and can diffuse approximately 200 nm in solution before falling back to ground state. In the absence of acceptor beads, the singlet oxygen molecules fall back to ground state without producing any light signal.
Experiment [7] concerns the target T2, human CD36 (on HEK 293 or SCC25 cells). In words: cell-based or functional assay. This is another data set of the same source.
For experiment [8], the target named is T4, mouse CD36 (on HEK 293 cells) (mouse, UniProt Q08857 1-472).
T4 construct: also called Murine CD36
T4 sequence (Q08857 whole entry): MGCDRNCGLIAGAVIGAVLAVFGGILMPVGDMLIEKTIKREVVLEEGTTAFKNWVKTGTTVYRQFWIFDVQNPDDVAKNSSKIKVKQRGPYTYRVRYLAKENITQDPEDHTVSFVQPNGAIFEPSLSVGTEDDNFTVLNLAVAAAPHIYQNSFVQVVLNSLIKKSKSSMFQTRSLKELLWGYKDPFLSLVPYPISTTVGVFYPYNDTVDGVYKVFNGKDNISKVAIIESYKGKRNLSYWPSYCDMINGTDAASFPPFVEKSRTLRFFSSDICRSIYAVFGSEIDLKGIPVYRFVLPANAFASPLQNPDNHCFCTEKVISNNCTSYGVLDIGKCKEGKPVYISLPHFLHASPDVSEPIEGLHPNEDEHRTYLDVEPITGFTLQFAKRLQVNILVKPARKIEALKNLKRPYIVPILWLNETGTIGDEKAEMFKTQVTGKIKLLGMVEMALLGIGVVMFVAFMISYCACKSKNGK
In words: FACS, HEK 293 cells transiently overexpressing CD36.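 Note: antibody binding to transfected cells detected by flow cytometry with a fluorescent anti-human secondary antibody, EC50 from a four-parameter sigmoidal fit of mean fluorescence intensity.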
Experimental: as §1

Experiment [9] deals with T2, human CD36 (on HEK 293 or SCC25 cells). As to the kind of experiment: FACS, SCC25 cells stably overexpressing human CD36.
Experimental: as §1
Another experiment has as its target T5, human CD36 (His-tagged) (human, UniProt P16671 30-439).
T5 construct: not shown: His tag
As to the kind of experiment: SPR (Biacore T200), His-captured CD36, bivalent analyte model. In general terms: In SPR one partner is held on a chip, and binding of the other changes the refractive index at the surface.

Experiment [10] deals with T2, human CD36 (on HEK 293 or SCC25 cells). In words: cell-based or functional assay. This is another data set of the same source.
The target is the same in experiment [11]. As to the kind of experiment: FACS, SCC25 cells stably expressing human CD36.
Experimental: SCC25 cells were treated with 10-fold serial dilution of each antibody (5 dilutions starting at 100 nM). After incubation with the cells, an anti-human fluorescently labelled antibody was added to the cell media, allowed to incubate further, and the unbound antibody was washed off of the cells. Subsequently, the cells were subjected to FACS analysis to determine antibody binding to the cells. The results were fitted to a sigmoidal titration curve. Using a nonlinear regression model, the EC₅₀ values for each antibody were calculated from the GeoMFI and MFI values using the log(agonist) versus response (four parameters) fitting on the data transformed according to X=Log[X] in GraphPad PRISM.

Substitutions are numbered along the chain they refer to. Names may count otherwise.

T5 sequence (P16671 30-439 limits assumed): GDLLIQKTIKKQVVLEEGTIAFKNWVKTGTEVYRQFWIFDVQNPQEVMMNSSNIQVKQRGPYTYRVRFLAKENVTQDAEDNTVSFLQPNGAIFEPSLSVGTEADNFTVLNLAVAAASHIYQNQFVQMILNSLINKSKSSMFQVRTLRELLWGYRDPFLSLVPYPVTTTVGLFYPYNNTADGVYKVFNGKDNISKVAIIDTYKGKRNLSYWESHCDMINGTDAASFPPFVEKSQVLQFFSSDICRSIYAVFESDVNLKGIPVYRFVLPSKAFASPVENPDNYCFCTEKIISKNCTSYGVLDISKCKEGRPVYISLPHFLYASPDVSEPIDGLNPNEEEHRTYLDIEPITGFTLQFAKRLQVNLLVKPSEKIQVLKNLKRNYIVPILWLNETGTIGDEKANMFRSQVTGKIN
T1 sequence (P16671 30-439 limits assumed): as above
T2 sequence (P16671 2-472 limits assumed): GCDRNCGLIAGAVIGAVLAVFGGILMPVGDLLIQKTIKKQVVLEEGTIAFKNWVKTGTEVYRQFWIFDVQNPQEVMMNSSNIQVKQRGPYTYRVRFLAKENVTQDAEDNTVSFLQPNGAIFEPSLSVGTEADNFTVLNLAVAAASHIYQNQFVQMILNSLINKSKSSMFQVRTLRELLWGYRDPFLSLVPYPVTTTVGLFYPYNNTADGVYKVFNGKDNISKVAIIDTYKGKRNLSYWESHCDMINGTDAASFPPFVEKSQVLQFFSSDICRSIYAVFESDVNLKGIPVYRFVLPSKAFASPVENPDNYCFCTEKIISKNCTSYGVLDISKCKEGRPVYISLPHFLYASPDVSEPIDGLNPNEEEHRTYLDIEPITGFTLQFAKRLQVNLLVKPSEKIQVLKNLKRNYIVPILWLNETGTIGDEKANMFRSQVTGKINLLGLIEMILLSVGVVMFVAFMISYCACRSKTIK
Experimental for human CD36 (His-tagged): The binding affinity of the reported antibodies for human CD36 was also measured by surface plasmon resonance (SPR) using a Biacore T200. […] For each single-cycle experiment, human CD36 (His-tagged) was captured at low density (approximately 40 RU) and a titration of five antibody concentrations (diluted in running buffer) were injected over the captured antigen and then the dissociation of the complex was measured. A double referencing method was employed in which data from the reference surfaces where no antigen was captured (fc 1) were subtracted from the antigen bound capture surface (fc 2). Blank injections of buffer were run for every antibody titration cycle and then subtracted from analyte injection cycles, to correct for small changes in the capture surface density. Surface regeneration between cycles was performed by injecting Glycine pH 1.5 for 60 s. All analysis was performed at 20° C. in HBS-P running buffer (flow 30 μL/min), and the sample rack was kept at 6° C. during experimental runs. Data was fitted to a bivalent analyte model from which the kinetic and thermodynamic binding constants were derived.

B1: 4G04 (antibody, human IgG1, V domains shown)
VH: QVQLQQPGSELRSPGSSVKLSCKDFDSEVFPIAYMTWVRQKPGHGFEWIGDILPSIGGTIYGEKFEDKATLDADTVSNTAYLELNSLTSEDSAIYYCARDYYGSSYGYFDVWGAGTAVTVSS
VL: DIVLTQSQKFMSTSVGDRVSVTCKASQNVGTNVAWYQQKPGQSPKALIYSASYRYSGVPDRFTGSGSGTDFTLTISNVQSEDLAEYFCQQYNSYPYTFGGGTKLEIK
notes: Chimeric: mouse variable regions on human IgG1 LALA (L234A/L235A); also called 04G04; 004G04
Usually EC50 stands for the midpoint of the concentration-response curve. B1: the concentration giving a half-maximal response (EC50) in experiment [1] amounted to 9.89 nM; in experiment [3], 0.11 nM; in [4], 27.7 nM. Besides, the “IC50 of fatty acid uptake inhibition (BODIPY FL C16, HEK hCD36 cells)” value (“IC50 of fatty acid uptake inhibition” for short) in experiment [2] is 483 nM.

B2: 29G04 (antibody, human IgG1, V domains shown)
VH: QVQLQQSGTELVKPGASVKLSCKASGYTFTSYWMHWVKQRPGQGLEWIGEIDPSDSHTNYNQKFKGKATLTVDKSSSTAYMQLSSLTSEDSAVYYCAPIYYGLDNWGQGTTLTVSS
VL: B1 VL with Y96L, G100A, I106L
notes: Chimeric: mouse variable regions on human IgG1 LALA (L234A/L235A); also called 029G04
In the case of B2, the EC50 in experiment [1] came to 33.8 nM; in experiment [3] it was 0.37 nM; in [5], 0.36 nM; in experiment [4], 0.32 nM. In addition, the “IC50 of fatty acid uptake inhibition” value in experiment [2] amounted to 0.08 nM.

B3: 27G04 (antibody, human IgG1, V domains shown)
VH: EVQLQQSGAELLKPGASVKISCKTTGYTFSNYWIEWVKQRPGHGLEWIGEILPGSGSPKYNEKFKGKATLTADTSSNTAFMQLSSLTSEDSAVYYCAPFILENYFDYWGQGTTLTVSS
VL: DIQMTQSHKFMSTSVGDRVSITCKASQDVSTAVAWYQQKPGQSPKLLIYSASYRYTGVPDRFTGSGSGTDFTFTISSVQAEDLAVYYCQQHYSTPRTFGGGTKLEIK
notes: Chimeric: mouse variable regions on human IgG1 LALA (L234A/L235A)
B3: the EC50 in experiment [1] came to 1.8 nM; in experiment [3], 0.15 nM; in experiment [5], 0.91 nM; in experiment [4], 0.63 nM.

B4: 37G04 (antibody, human IgG1, V domains shown)
VH: AVTLDESGGGLQTPGGALSLVCKASGFTFSDYDMLWVRQAPGKGLEFVAGINAASTYTDYGAAVKGRATISRDNGQSTVRLQVNNLRAEDTGTYYCAKSSYGGGWSDVGSIDAWGHGTEVIVSS
VL: ALTQPSSVSANPGETVKITCSGDRSYYGYGWYQQKAPGSAPVTVIYWDDKRPSDIPSRFSGSTSGSTATLTITGVQAEDEAVYFCGNMDSSYVGMFGAGTTLTVL
notes: Chimeric: chicken variable regions on human IgG1 LALA (L234A/L235A); also called 037G04
For B4, the EC50 came out at 3.3 nM in experiment [6]; 9.91 nM in experiment [3]; 2.29 nM in experiment [8]; 0.62 nM in experiment [5]; 1.45 nM in experiment [4]. Besides, in experiment [2], the “IC50 of fatty acid uptake inhibition” value is 0.3 nM. Moreover, in experiment [7], the “IC50 of oxLDL uptake inhibition (DiI-oxLDL, SCC25 cells)” value (“IC50 of oxLDL uptake inhibition” for short) was found to be 1.14 nM.

B5: 15G04 (antibody, human IgG1, V domains shown)
VH: QVQLQQSGPELVKPGASVKISCKASGYTFSTSWMNWVKQRPGQGLEWIGRIYPGDGDTNYNGKFKGKATLTADTSSSTAYMQLSSLTSVDSAVYFCAREVYYGGYEDYGMDYWGQGTSVTVSS
VL: DVVMTQTPLSLPVSLGDQASISCRSSQSLLHTNVNTYLHWYLQKPGQSPKLLIYKVSNRFSGVPDRFSGSGSGTDFTLKISRVEAEDLGVYFCSQSTHVPYTFGGGTKLEIK
notes: Chimeric: mouse variable regions on human IgG1 LALA (L234A/L235A); also called 015G04
B5: the figures for the half-maximal effective concentration (EC50) in experiment [1], in experiment [3] and in experiment [4] were 5.65 nM, 0.41 nM and 2.2 nM, respectively. In addition, in experiment [2], the “IC50 of fatty acid uptake inhibition” value was above 1000 nM.

B6: 13G04 (antibody, human IgG1, V domains shown)
VH: QVQLQQSGAELVRPGASVKLSCKASGYTFTSYWMNWVKQRPGQGLEWIGMIDPSDNETHYNQMFKDKATLTVDKSSSTAYMQLSSLTSEDSAVYYCARSDYGNGYSFYLDVWGAGTTVTVSS
VL: DIVLTQSPASLAVSLGQRATISCRASESVDSYGNSFMHWYQQKPGQPPKLLIYRASNLESGIPARFSGSGSRTDFTLTINPVEADDVATYYCQQSNEDPWTFGGGTKLEIK
notes: Chimeric: mouse variable regions on human IgG1 LALA (L234A/L235A); also called 013G04
One may read the koff as a measure of how fast the partners let go of each other. The kon is the rate constant with which the complex forms. Take B6: the EC50 in experiment [1] was determined as 46.8 nM; in experiment [9], 0.26 nM; in experiment [3], 0.17 nM; in [8] it was 5.93 nM; in experiment [5], 0.31 nM; in experiment [4], 1.06 nM. Besides, in [2], the “IC50 of fatty acid uptake inhibition” value amounted to 0.2 nM. The molecule further returned a Kd with human CD36 (His-tagged) of 1.5 nM. The koff with human CD36 (His-tagged) amounted to 0.0037 s⁻¹. In the experiment with human CD36 (His-tagged), this molecule registered a kon of 2.4e+06 M⁻¹ s⁻¹. In addition, the “IC50 of oxLDL uptake inhibition” value in experiment [7] was determined as 0.26 nM. Further, the “Percent Fatty Acid Uptake Inhibition” value in [10] came to 52.8%.

B7: 19G04 (antibody, human IgG1, V domains shown)
VH: EVQLQQSGPELVKPGASVKISCETSGHTFTEYTMHWVKQSHGKSLEWIGGIYPNNGATKYNQKFKGKATLTVDKSSSTAYMELRSLTSEDSAVYYCARDRYDVWFAYWGQGTLVTVSA
VL: ETTVTQSPASLSMAIGEKVTIRCITSTDIDDDMNWYQQKPGEPPKLLISEGNTLRPGVPSRFSSSGYGTDFIFTIENMLSEDVADYYCLQSDNLPLTFGAGTKLELK
notes: Chimeric: mouse variable regions on human IgG1 LALA (L234A/L235A); also called 019G04
For the molecule B7, the EC50 in experiment [6] was 5.23 nM; in experiment [9], 0.75 nM; in experiment [8], 22.5 nM; in [5], 1.92 nM; in experiment [4], 5.45 nM. Further, the “IC50 of fatty acid uptake inhibition” value in experiment [2] was found to be 0.05 nM. In addition, the “Percent Fatty Acid Uptake Inhibition” value in [10] was 53.3%.

B8: 6G04 (antibody, human IgG1, V domains shown)
VH: QVQLQQSGAELVMPGASVKMSCKASGYTFTDYWMHWVKQRPGQGLEWIGSIDTSDSYTTYSQKFKGKATLTVDESSSTAYMELARLTSEDSAIYYCVRGEDYEGTWFAYWGQGTLVTVSA
VL: B7 VL with M13V, I15T, I72V, M78T, L94M
notes: Chimeric: mouse variable regions on human IgG1 LALA (L234A/L235A); also called 06G04; 006G04
As for B8, the EC50 worked out at 1040 nM in experiment [1]; 0.56 nM in experiment [9]; 1.15 nM in experiment [3]; 1.51 nM in [8]; 0.53 nM in experiment [5]; 4.85 nM in experiment [4]. Also, the “IC50 of fatty acid uptake inhibition” value in [2] was 0.1 nM. This molecule also gave a Kd with human CD36 (His-tagged) of 0.51 nM. In addition, the koff in the experiment with human CD36 (His-tagged) is 0.0002 s⁻¹. The same molecule gave a kon with human CD36 (His-tagged) of 390000 M⁻¹ s⁻¹. For the same molecule, in [7], the “IC50 of oxLDL uptake inhibition” value was determined as 0.27 nM. In addition, the “Percent Fatty Acid Uptake Inhibition” value in experiment [10] came to 35.1%.

B9: 16G04 (antibody, human IgG1, V domains shown)
VH: EVQLQQSGPELVKPGASVKISCKTSGYTFTEYTMHWVKQSHGKSLEWIGGINPYNGGTAYNQKFKNKATLTVDISSNTAFMEFRSLTSEDSAVYYCASDYFYGDANPWFAYWGQGTLVTVSA
VL: B7 VL with I72V
notes: Chimeric: mouse variable regions on human IgG1 LALA (L234A/L235A); also called 016G04
B9: the EC50 came to 3.73 nM in experiment [6]; 0.57 nM in [9]; 9.19 nM in experiment [3]; 18.2 nM in experiment [8]; 1.36 nM in [5]; 5.4 nM in [4]. The “IC50 of fatty acid uptake inhibition” value in experiment [2] came to 0.15 nM. The “Percent Fatty Acid Uptake Inhibition” value in experiment [10] was 45.2%.

B10: 30G04 (antibody, human IgG1, V domains shown)
VH: EVQLVESGGGVVQPGESLKLSCESNEYEFPSHDMSWVRKTPERRLELVAAINSDGAITYYPDTMERRFIISRDNTKKTLYLQMSSLKSEDTAMYYCARHGQTGTWFAYWGQGTLVTVSA
VL: B7 VL with I72V
notes: Chimeric: mouse variable regions on human IgG1 LALA (L234A/L235A); also called 030G04
For the molecule B10, the EC50 in experiment [6] turned out to be 0.65 nM; in experiment [9] it was 0.22 nM; in experiment [8], 0.96 nM; in experiment [5] it was 0.32 nM; in [4], 1.63 nM. The “IC50 of fatty acid uptake inhibition” value in experiment [2] was found to be 0.8 nM. Besides, the “Percent Fatty Acid Uptake Inhibition” value in [10] turned out to be 43.5%.

B11: 38G04 (antibody, human IgG1, V domains shown)
VH: AVTLDESGGGLQTPGRALSLVCKASGFTFSSYNMFWVRQAPGKGLEWVAGIDDDGSFTLYGAAVKGRATISRDNGQSTVRLQLNNLRAEDTGTYYCARDSGAVSIDAWGHGTEVIVSS
VL: ALTQPSSVSANPGETVKITCSGGDSDYGWYQQKSPGSAPVTVIYQNDKRPSDIPSRFSGSASGSTATFTITGVQAEDEAVYYCGGWDGSYDGAVFGAGTTLTVL
notes: Chimeric: chicken variable regions on human IgG1 LALA (L234A/L235A); also called 038G04
Regarding B11, the half-maximal effective concentration (EC50) came out at 1.05 nM in experiment [6]; 1.45 nM in [3]; 0.69 nM in [8]; 0.35 nM in [5]; 0.33 nM in [4]. For the same molecule, in experiment [2], the “IC50 of fatty acid uptake inhibition” value is 0.18 nM. In experiment [7], the “IC50 of oxLDL uptake inhibition” value worked out at 0.35 nM.

B12: 1G07 (antibody, V domains shown)
VH: QVQLKQSGADLVRPGASVKLSCKASGYTFTDYYINWVKQRPGQGLEWIARIYPGSGNTYYNEKFKGKATLTAEKSSSTAYMQLSSLTSEDSAVYFCARGIGGGFGMDYWGQGTSVTVSS
VL: SIVMTQTPKFLLVSAGDRITITCKASQSVSDDVAWYQQKPGQSPKLLIYYASNRYTGVPDRFTGSGYGTDFTFTISTVQAEDLAVYFCQQDYSSPLTFGAGTKLEIK
notes: also called SPLE
With B12, the concentration for a half-maximal effect (EC50) in [11] was 0.47 nM.

Values taken from US20250206836A1 (ONA THERAPEUTICS S L, published 2025).
